Key:
RhoA [1] = target: RhoA (UniProt Q9QUI0); assay: anti-RhoGDI1 co-IP from cytosolic fraction; settings: reference: unstimulated acini; sites S96
RhoA [2] = target: RhoA (UniProt Q9QUI0); assay: anti-RhoGDI1 co-IP from acinar lysate; settings: reference: unstimulated acini; sites S96

percent of reference (RhoA [1]) [%]	percent of reference (RhoA [2]) [%]	Substance
42	–	RhoGDI1 (endogenous) (from UniProt Q99PT1) CCK 300 pM, 5 min
–	37	RhoGDI1 (endogenous) (from UniProt Q99PT1) PMA 500 nM
